Experimental data reported in patent US20210363269A1 (ALX ONCOLOGY, published 2021).
Positions count from the first letter of the chain named.

B1: S59 (scFv, V domains shown)
VH: DVQLVESGGGVVRPGESLRLSCAVSGFRFSSHAMSWVRQAPGKGLEWVSGISSGGDTYYVDSVKGRFTISRDNSKNTLYLQVNSLTAEDTAIYYCARETWNHLFDYWGLGTLVTVSS
VL: ALTQPASVSANLGETVKITCSGGDSSSHYYGWYQQKSPGSAPVTVIYSDDERPSDIPSRFSGSASGSTATLTITGVRVEDEAIYYCGAYDGSTYANTFGAGTTLTVL
notes: also called clone 59
B2: S76 (scFv, V domains shown)
VH: DVQLVESGGGVVRPGESLRLSCAASGFTFSSYAMSWVRQAPGKGLEWLAGISAGGSDTYYIDSVKGRFTISRDNSKNSLYLQMNSLTAEDTAVYYCARETWNHLFDYWGLGTLVTVSS
VL: ALTQPASVSANPGETVKITCSGGDWYSTYYGWYQQKSPGSAPVTVIHSDDKRPSDIPSRFSGSASGSAATLTITGVRVEDEAVYYCAGYDGRTYINTFGAGTTLTVL
notes: also called clone 76
B3: S24 (scFv, V domains shown)
VH: B2 VH with Y32N, I61P, D62A, S75P, S78T, S85T
VL: ALTQPASVSANPGETVKIACSGGSYYSYYYGWYQQKSPGSALVTVIYSDDKRPSGIPSRFSGSASGSTATLTITGVRAEDEAVYYCGGYDYSSYTNDFGAGTTLTVL
notes: also called clone 24
B4: S22 (scFv, V domains shown)
VH: DVQLVESGGGVVRPGESLRLSCAASGFTFSSYAMSWVRQAPGKGLEWLAGISAGGSDTYYIDSVKGRFTISRRQFQEQSLSPNEPALTAEDTAVYYCARETWNHLFDYWGLGTLVTVSS
VL: B2 VL with W25Y, T74A, Y85F, A87G, G88A
notes: also called clone 22
B5: S65 (scFv, V domains shown)
VH: B2 VH
VL: B2 VL with W25Y, Y85F, A87G, G88A
notes: also called clone 65
B6: S69 (scFv, V domains shown)
VH: B2 VH with V2L
VL: B2 VL with T19I, W25Y, Y85F, A87G, G88A
notes: also called clone 69
B7: S23 (scFv, V domains shown)
VH: B2 VH with Y32H, N77S, Q82R
VL: B2 VL with W25Y, G31A, K51E, T72I, Y85F, A87G
notes: also called clone 23
B8: S60 (scFv, V domains shown)
VH: B2 VH with E6D
VL: B2 VL with W25Y, Y85F, A87G, G88A
notes: also called clone 60
B9: S202 (scFv, V domains shown)
VH: B2 VH
VL: B2 VL with D24G, W25Y, K36R, I95L
B10: S71 (scFv, V domains shown)
VH: B2 VH
VL: B2 VL with D24G, W25Y, G91A
notes: also called clone 71
B11: S21 (scFv, V domains shown)
VH: B2 VH with Y32N, I61P, D62A, S78T, S85T
VL: B3 VL with S24D, S37A, G55D, S93T, T95A, D97A
notes: also called clone 21; scFv-Fc form of AB21
B12: S70 (scFv, V domains shown)
VH: B2 VH with T58A
VL: B2 VL
notes: also called clone 70
B13: S66 (scFv, V domains shown)
VH: B2 VH with S75P, N84S
VL: B2 VL with W25Y, G31A, T72I, A87G
notes: also called clone 66; scFv-Fc form of AB66
B14: S17 (scFv, V domains shown)
VH: B2 VH with G10A, K76E
VL: B2 VL
notes: also called clone 17
B15: S56 (scFv, V domains shown)
VH: B2 VH with M83V
VL: B2 VL with D24G, W25Y
notes: also called clone 56

What was measured:
Assay in all cases: SPR, Langmuir fit
[1] = target: T1, human SIRPγ isoform 1 (human, UniProt Q9P1W8 29-147)
T1 construct: also called SIRPg; sirpg
T1 sequence (Q9P1W8 29-147 limits assumed): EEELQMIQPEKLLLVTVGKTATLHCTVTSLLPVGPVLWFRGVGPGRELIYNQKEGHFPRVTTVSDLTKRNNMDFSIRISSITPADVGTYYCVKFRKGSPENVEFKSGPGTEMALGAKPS
In short: (§1)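 Pre-filtered culture media supplied the scFv-Fc antibody clones, which were captured by anti-human IgG Fc amine-coupled (about 4000 RU) to a GLC chip on a ProteOn XPR36. SIRP analytes were flowed in PBS pH 7.4 with 0.01% Tween-20 at 25° C. Interspot and buffer-blank responses were subtracted from the data, which were then fitted to a 1:1 Langmuir model. Dissociation rate constants (koff) were derived from this fitting.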

[2] = target: T2, human SIRP-α v2 D1 domain (human)
T2 construct: also called human v2
T2 sequence (chain, as listed by the source limits assumed): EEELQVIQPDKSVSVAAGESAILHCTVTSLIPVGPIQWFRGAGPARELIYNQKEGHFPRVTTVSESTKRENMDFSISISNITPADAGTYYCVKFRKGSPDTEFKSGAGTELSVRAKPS
In short: as §1

[3] = target: T3, human SIRPβ isoform 1 (human, UniProt O00241 30-148)
T3 construct: also called SIRPb; sirpb1
T3 sequence (O00241 30-148 limits assumed): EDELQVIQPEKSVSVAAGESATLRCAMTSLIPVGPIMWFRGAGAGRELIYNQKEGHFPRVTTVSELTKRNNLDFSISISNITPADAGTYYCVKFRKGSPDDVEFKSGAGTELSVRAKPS
In short: as §1

[4] = target: T4, human SIRP-α v1 D1 domain (human, UniProt P78324 31-149)
T4 construct: also called human v1
T4 sequence (P78324 31-149 limits assumed): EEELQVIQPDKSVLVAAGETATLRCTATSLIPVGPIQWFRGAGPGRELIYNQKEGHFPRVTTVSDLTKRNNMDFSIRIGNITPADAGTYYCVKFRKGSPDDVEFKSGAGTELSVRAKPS
In short: as §1

[5] = target: T5, NOD mouse SIRP-α D1 domain (mouse (NOD strain))
T5 chain: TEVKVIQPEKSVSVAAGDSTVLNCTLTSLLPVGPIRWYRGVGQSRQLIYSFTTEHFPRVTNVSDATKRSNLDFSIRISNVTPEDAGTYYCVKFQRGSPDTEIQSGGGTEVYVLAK
In short: as §1

[6] = target: T6, C57BL/6 mouse SIRP-α D1 domain (mouse (C57BL/6 strain), UniProt P97797 32-148)
T6 sequence: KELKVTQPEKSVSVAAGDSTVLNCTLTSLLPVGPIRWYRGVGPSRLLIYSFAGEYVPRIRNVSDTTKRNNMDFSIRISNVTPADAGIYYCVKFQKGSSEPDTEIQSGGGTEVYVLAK
In short: as §1

[7] = target: T7, cynomolgus SIRP-α D1 domain (cyno1) (cynomolgus monkey, UniProt Q5TFQ8 30-148 (human entry), limits assumed)
T7 chain: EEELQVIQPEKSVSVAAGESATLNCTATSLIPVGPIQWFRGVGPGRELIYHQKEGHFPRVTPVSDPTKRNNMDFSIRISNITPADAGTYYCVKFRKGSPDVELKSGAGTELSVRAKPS
In short: as §1

[8] = target: T8, mouse 129 SIRP-α D1 domain (mouse (129 strain), UniProt P97797 32-150)
T8 construct: also called m129
T8 chain: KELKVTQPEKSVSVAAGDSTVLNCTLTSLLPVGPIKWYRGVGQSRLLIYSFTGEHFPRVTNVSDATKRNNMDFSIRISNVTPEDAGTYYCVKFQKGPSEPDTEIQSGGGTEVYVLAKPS
In short: as §1

[9] = target: T9, high affinity SIRP-α D1 variant CV1-3
T9 chain: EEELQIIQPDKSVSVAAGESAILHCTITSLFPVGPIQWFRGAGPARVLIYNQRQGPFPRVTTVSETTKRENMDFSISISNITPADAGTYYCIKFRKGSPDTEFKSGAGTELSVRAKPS
In short: as §1

[10] = target: T10, cynomolgus SIRP-α D1 domain (cyno2) (cynomolgus monkey, UniProt Q5TFQ8 30-148 (human entry), limits assumed)
T10 chain: T7 chain with E19D, A27V, T28S, V42A, H51N, Q52L, P62A
In short: as §1

| Binder | koff [1] [s⁻¹] | koff [2] [s⁻¹] | koff [3] [s⁻¹] | koff [4] [s⁻¹] | koff [5] [s⁻¹] | koff [6] [s⁻¹] | koff [7] [s⁻¹] | koff [8] [s⁻¹] | koff [9] [s⁻¹] | koff [10] [s⁻¹] |
| --- | --- | --- | --- | --- | --- | --- | --- | --- | --- | --- |
| B1 | 4.28e-05 | 8.63e-05 | 0.000107 | 4.98e-05 | 0.00135 | 0.00239 | 0.000106 | 0.000209 | 8.19e-05 | 0.000113 |
| B2 | 0.000177 | 0.000209 | 0.000187 | 0.00014 | 0.000576 | 0.000998 | 0.000277 | 0.000179 | 0.000155 | 0.000269 |
| B3 | 0.000197 | 0.000317 | 0.000194 | 0.000257 | 0.00386 | 0.00126 | 0.000382 | 0.000402 | 0.000216 | 0.000334 |
| B4 | 0.000108 | 0.000146 | 0.000138 | 0.000121 | 0.000583 | 0.000736 | 0.000177 | 0.000153 | 0.000135 | 0.000177 |
| B5 | 0.000134 | 0.000172 | 0.000154 | 0.000145 | 0.000607 | 0.000786 | 0.000188 | 0.000159 | 0.000147 | 0.00019 |
| B6 | 0.000199 | 0.000267 | 0.000229 | 0.000205 | 0.000709 | 0.000765 | 0.000255 | 0.000246 | 0.000233 | 0.000216 |
| B7 | 0.000104 | 0.000135 | 0.000114 | 8.35e-05 | 0.000823 | 0.00132 | 0.00016 | 0.000134 | 0.000106 | 0.000183 |
| B8 | 0.0001 | 0.000186 | 0.000153 | 0.00014 | 0.000726 | 0.0015 | 0.000192 | 0.000221 | 0.000145 | 0.000175 |
| B9 | 4.44e-05 | 5.4e-05 | 0.00205 | 3.75e-05 | 0.000509 | 0.00063 | 0.000113 | 4.58e-05 | 6.86e-05 | 0.00012 |
| B10 | 0.000316 | 0.000403 | 0.000388 | 0.000335 | 0.00112 | 0.00341 | 0.000364 | 0.000417 | 0.000379 | 0.000313 |
| B11 | 0.000184 | 0.000207 | 0.00019 | 0.00018 | 0.00264 | 0.000806 | 0.000233 | 0.000281 | 0.000195 | 0.000252 |
| B12 | 0.000222 | 0.00029 | 0.000225 | 0.000225 | 0.000672 | 0.000987 | 0.000296 | 0.00027 | 0.00026 | 0.000245 |
| B13 | 0.000126 | 0.000206 | 0.000138 | 0.000118 | 0.00049 | 0.00102 | 0.00025 | 0.000127 | 0.00011 | 0.000255 |
| B14 | 0.000102 | 0.000197 | 0.000125 | 0.000124 | 0.000612 | 0.00113 | 0.000193 | 0.000234 | 0.000154 | 0.000207 |
| B15 | 0.000215 | 0.000286 | 0.000362 | 0.000228 | 0.00106 | 0.00429 | 0.000295 | 0.000406 | 0.000203 | 0.00028 |
